The target of assay [1] is E. coli DnaK (E. coli), A1A766.
The target in assay [2] is E. coli DnaK aa583-615 (hinge region between C-terminal helices D and E) (E. coli).
The target in assay [3] is E. coli DnaK aa588-615 (E. coli).
The target in assay [4] is Hsp60 (the human equivalent of GroEL) (human), P10809. In words: fluorescence polarization, 1 nM labeled peptide, 2 µM protein; blank about 62. A general note: Fluorescence polarisation rises when a labelled molecule tumbles more slowly, as on binding a larger partner.
For assay [5], the target named is GroEL (E. coli), P0A6F5.
For a further assay, the target named is T1, GrpE, P09372.
T1 chain: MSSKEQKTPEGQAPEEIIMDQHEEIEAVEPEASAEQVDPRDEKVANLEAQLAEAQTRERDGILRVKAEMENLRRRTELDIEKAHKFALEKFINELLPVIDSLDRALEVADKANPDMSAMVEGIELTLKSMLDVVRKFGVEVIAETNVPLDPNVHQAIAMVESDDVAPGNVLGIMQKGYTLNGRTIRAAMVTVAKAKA

For assay [6], the target named is E. coli DnaK (E. coli), A1A766. This is another data set of the same source.
A further assay deals with T2, GroES, P0A6F9.
T2 chain: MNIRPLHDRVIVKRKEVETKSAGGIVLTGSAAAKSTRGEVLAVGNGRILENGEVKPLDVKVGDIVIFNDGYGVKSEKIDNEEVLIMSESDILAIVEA

For assay [7], the target named is GroEL (E. coli), P0A6F5. This is another data set of the same source.
Assay [8] has as its target E. coli DnaK (E. coli), A1A766. The source holds these as a separate data set.
Assay [9] has as its target guanyl-nucleotide binding protein Ras (21 kDa). Briefly: fluorescence polarization, 1 nM labeled peptide, 4 µM Ras; background without protein 46±7.
Assay [10] concerns the target Hsp60 (the human equivalent of GroEL) (human), P10809. Briefly: fluorescence polarization, 1 nM labeled peptide, 4 µM protein; blank about 62.
In assay [11] the target is E. coli DnaK (E. coli), A1A766. Briefly: cell-based or functional assay.

“And” between values parts separate entries of the source, which are not always exact repeats. Equal entries are not always repeated. Where only a bound is given, the exact number is not on record here.

Chain of Hsp60 (the human equivalent of GroEL) (human), P10809 (P10809 27-573 limits assumed): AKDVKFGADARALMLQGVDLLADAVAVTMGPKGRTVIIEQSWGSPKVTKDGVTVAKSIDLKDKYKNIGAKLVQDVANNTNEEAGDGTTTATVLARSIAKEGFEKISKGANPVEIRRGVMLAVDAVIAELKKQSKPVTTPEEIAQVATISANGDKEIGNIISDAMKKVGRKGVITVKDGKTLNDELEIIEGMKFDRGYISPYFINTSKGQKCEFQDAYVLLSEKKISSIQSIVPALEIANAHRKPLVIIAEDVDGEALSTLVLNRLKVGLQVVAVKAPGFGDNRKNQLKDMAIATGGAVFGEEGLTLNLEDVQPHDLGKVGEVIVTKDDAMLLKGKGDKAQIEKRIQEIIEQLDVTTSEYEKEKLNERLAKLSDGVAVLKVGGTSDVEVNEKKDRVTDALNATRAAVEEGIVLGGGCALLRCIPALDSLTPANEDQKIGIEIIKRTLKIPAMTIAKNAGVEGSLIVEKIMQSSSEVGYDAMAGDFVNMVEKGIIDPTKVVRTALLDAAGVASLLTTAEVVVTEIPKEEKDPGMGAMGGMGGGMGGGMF

B1: fluorescein-K-pyrrhocoricin (peptide)
peptide: KVDKGSYLPRPTPPRPIYNRN
modifications: not checked
As to B1, the dissociation constant (Kd) in [1] is 1.1 µM; in assay [2], 50.8 µM; in assay [3], 93 µM. In [1], this molecule had a millipolarization over the background of 50%. For the same molecule, the minipolarization value (millipolarization) in assay [4] is 62; with GroEL (E. coli), P0A6F5 [5], > 100 and 85; with GrpE, P09372, under 62; in assay [6], 100 and 95; in the assay with GroES, P0A6F9, under 62; in [10], 90. Further, the Millipolarization (no competing peptide) (millipolarization) with GroEL (E. coli), P0A6F5 [7] was 70; in assay [8], 126. Moreover, in assay [9], the millipolarization units (millipolarization units) came out at 52.

B2: pyrrhocoricin (unlabeled, all L-amino acids, without sugar) (peptide)
peptide: VDKGSYLPRPTPPRPIYNRN
modifications: not checked
As to B2, in assay [11], the ATPase activity of recombinant DnaK (EnzChek assay, UV absorbance at 360 nm), 50 molar equivalents of peptide (fraction of the original value) was under 0.5. Besides, the Millipolarization after preincubation (millipolarization) in the assay with GroEL (E. coli), P0A6F5 [7] was 62; in assay [8], 110 and 84.

By Kd is commonly meant a measure of binding affinity in units of concentration. Low readings indicate a tighter complex, high ones a looser complex.

The values are drawn from patent US20030108957A1.
